These results are taken from PMC11309785.

The experiment deals with BG505_B23 trimer, His-tagged (HIV-1 isolate BG505). As to the kind of experiment: SPR; ProteOn XPR36, HC30M XanTec chip; His-tagged trimer (300 to 400 RU, 1 ug/mL) captured by immobilised rabbit anti-His-tag pAb, Fab flowed as analyte at 30 ul/min for 3 min, 5 min dissociation; 1x HBS-EP+ pH 7.4 with BSA 1 mg/ml; equilibrium or kinetic (Langmuir) fits; highest concentration 2x10^-5 M, approximate upper affinity limit 1.6x10^-11 M. Background: Surface plasmon resonance follows binding to a sensor surface in real time, without labels.

B1: RM_N332_07 Fab (Fab, V domains shown)
VH: QVQLQESGPGLVKPSETLSLTCAVSGASFSSFWWDWIRQPPGRGLEWIGDINGNSGSTNYNPSLKSRVTISKDASKSQFSLKLTSVTAADTAVYYCALQSVTYYEDDSGHYETEMAKFWGQGVLVTVSS
VL: QPVLTQPPSVSGAPGQRVTISCSGSSSNIGGYHVQWYQQLPGTAPKLLIYESNKRPSGISDRFSASQFGTSASLTITGLQSEDEADYYCQSYDSSVSAQVFGGGTRLTVL
B1 showed a Kd of less than 100 nM.

B2: RM_N332_08 Fab (Fab, V domains shown)
VH: QVQLVQSGAEVKKPGSSVKVSCKASGYTFTDHYIHWVRQAPRQGLEWMGWINPYNGNTNYAQKFQGRVTLTRDTSTTTVYMELISLRSEDTAVYYCARGGEYCTGFGCFAGKGDNSLDVWGRGVLVSVSS
VL: DIVMIQTPLSLPVTPGEPASISCRSSQSLFDIEDETTYLEWFLQKPGQSPQPLIYEVSNRASGVPDRFSGSGSDTAFTLKISRVEAEDVGIYYCMQGIEYPFTFGPGTKVEIK
B2 gave a Kd of less than 100 nM.

For orientation: Kd means the constant that tells how readily two partners part at equilibrium. A low value points to a tighter complex.
